Target: mTOR with the cancer-associated 1455-EWED-1458 duplication, as the mTOR subunit of mTORC1_EWEDdup (human) (UniProt P42345)
Test: cryo-EM structure; mTORC1_EWEDdup co-expressed and purified as a complex; 1 uM with 20 uM 4EBP1 and 1 mM AMPPNP, cross-linked with 0.2 mM BS3 and 0.03% glutaraldehyde, glycerol gradient, Superose 6; 50 mM HEPES pH 7.5, 250 mM NaCl, 5 mM MgCl2, 1 mM TCEP

stoichiometry N: 2
Substance: mTOR with the cancer-associated 1455-EWED-1458 duplication, as the mTOR subunit of mTORC1_EWEDdup, P42345 1-2549

Source: PMC11518995
